Measured values taken from patent US6365161.

Tests used:
[1] = target: soluble fusion protein consisting of the extracellular domain of human FcγRI and human IgM heavy chain (sFcγRI-µ) (human) (UniProt P12314); assay: ELISA on captured FcγRI/IgM heavy chain fusion protein, in excess human IgG1
[2] = target: soluble fusion protein consisting of the extracellular domain of human FcγRI and human IgM heavy chain (sFcγRI-µ) (human) (UniProt P12314); assay: ELISA on captured FcγRI/IgM heavy chain fusion protein, against a nonspecific human IgG1
[3] = target: human FcγRI (CD64) on cells (human) (UniProt P12314); assay: cell-based or functional assay
[4] = target: human FcγRI (CD64) on cells (human) (UniProt P12314); assay: flow cytometry, fluorescein-conjugated antibody on peripheral blood monocytes
Target sequence in this assay (P12314 16-374): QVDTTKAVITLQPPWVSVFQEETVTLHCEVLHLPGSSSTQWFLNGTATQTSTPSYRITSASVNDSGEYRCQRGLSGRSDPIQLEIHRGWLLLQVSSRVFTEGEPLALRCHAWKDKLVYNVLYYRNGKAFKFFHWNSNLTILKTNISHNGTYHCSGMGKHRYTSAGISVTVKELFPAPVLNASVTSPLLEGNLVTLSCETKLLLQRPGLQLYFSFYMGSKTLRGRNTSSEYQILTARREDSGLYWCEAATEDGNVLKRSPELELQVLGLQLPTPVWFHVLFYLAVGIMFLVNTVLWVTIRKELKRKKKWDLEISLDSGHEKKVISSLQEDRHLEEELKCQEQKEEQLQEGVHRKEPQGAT

Chain of soluble fusion protein consisting of the extracellular domain of human FcγRI and human IgM heavy chain (sFcγRI-µ) (human) (P12314 other isoform, or with tags, fused parts or gaps limits assumed): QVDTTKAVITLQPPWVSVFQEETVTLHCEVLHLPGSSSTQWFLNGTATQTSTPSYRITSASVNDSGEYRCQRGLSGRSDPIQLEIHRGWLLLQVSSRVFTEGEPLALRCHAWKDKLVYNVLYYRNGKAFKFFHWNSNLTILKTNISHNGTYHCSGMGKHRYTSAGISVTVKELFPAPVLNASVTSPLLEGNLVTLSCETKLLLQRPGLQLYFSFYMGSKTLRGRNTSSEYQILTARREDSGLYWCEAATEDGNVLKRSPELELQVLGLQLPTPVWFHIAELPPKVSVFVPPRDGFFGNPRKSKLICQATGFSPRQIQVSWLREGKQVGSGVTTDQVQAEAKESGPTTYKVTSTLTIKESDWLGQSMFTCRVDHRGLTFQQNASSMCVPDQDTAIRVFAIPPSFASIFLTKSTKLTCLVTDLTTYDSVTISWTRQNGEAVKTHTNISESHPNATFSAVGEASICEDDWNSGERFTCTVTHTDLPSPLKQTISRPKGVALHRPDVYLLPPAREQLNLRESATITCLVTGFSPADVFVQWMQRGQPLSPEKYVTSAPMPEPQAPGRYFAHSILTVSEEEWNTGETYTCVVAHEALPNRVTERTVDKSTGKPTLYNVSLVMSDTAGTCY

NEWM VH/REI Vκ humanized mAb 22 (antibody)
fold lower affinity than the chimeric mAb [1]: 5 fold
percent of binding via the Fv portion [2]: > 95%

TsAb m22 Fab′x32.2 Fab′xm22 Fab′
FcγRI expression on monocytes in whole blood (modulation assay) (% of the level prior to BsAb treatment) [3]: 50

chemically linked M22 Fab′ multimer M22 F(ab′)3+
human CD64 surface expression on macrophages of human CD64-transgenic mice [3]: < 50 % reduction

murine anti-FcγRI monoclonal antibody M22
Antibody sites per cell (antibody sites per cell) [4]: 10000
